From US20170306033A1 (Amgen, published 2017) come the findings set out here.

T1: human PAC1 receptor (human, UniProt P41586 21-468)
T1 sequence: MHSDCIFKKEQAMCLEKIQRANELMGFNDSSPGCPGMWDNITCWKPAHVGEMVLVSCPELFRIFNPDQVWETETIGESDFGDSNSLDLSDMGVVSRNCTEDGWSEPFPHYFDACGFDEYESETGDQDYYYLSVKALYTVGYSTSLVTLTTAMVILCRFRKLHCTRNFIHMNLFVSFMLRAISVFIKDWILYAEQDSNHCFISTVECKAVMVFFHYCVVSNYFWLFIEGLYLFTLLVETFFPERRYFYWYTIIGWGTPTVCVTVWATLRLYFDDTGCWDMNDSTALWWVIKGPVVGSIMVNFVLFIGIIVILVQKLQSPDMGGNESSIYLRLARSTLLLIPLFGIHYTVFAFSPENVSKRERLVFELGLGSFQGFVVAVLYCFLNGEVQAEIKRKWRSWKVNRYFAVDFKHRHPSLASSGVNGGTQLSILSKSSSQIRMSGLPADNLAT

B1: iPS:326645 (bispecific antibody, human IgG2, kappa, lambda)
light 1: not shown
heavy 1: QVQLQESGPGLVKPSQTLSLTCTVSGGSISSGGYYWSWIRQHPGKGLEWIGYIYYSGNTYYNPSLKSRVTISGDTSKNQFSLKLRSVTAADTAVYYCTRGGAARGMDVWGQGTTVTVSSASTKGPSVFPLAPCSRSTSESTAALGCLVKDYFPEPVTVSWNSGALTSGVHTFPAVLQSSGLYSLKSVVTVPSSNFGTQTYTCNVDHKPSNTKVDKTVERKCCVECPPCPAPPVAGPSVFLFPPKPKDTLMISRTPEVTCVVVDVSHEDPEVQFNWYVDGVEVHNAKTKPREEQFNSTFRVVSVLTVVHQDWLNGKEYKCKVSNKGLPAPIEKTISKTKGQPREPQVYTLPPSREEMTKNQVSLTCLVDGFYPSDIAVEWESNGQPENNYDTTPPMLDSDGSFFLYSDLTVDKSRWQQGNVFSCSVMHEALHNHYTQKSLSLSPGK
light 2: not shown
heavy 2: not shown
B2: iPS:328033 (bispecific antibody, human IgG1, kappa, N297G)
light 1: not shown
heavy 1: not shown
light 2: EIVLTQSPGTLSLSPGERATLSCRASQSVSSGYLTWYQQKPGQAPRLLIYGASSRATGIPDRFSGSGSGTDFTLTISRLEPEDFAVYYCQQYGNSLSRFGQGTKLEIKRTVAAPSVFIFPPSDEQLKSGTASVVCLLNNFYPREAKVQWKVDNALQSGNSQESVTEQDSKDSTYSLKSTLTLSKADYEKHKVYACEVTHQGLSSPVTKSFNRGEC
heavy 2: not shown
B3: iPS:327883 (bispecific antibody, human IgG1, kappa, lambda, N297G)
light 1: DIQMTQSPSSLSASVGDRITITCRASQSISRYLNWYQQKPGKAPKLLIYAASSLQSGIPSRFSGSGSGTDFTLTINSLQPEDFATYFCQQSYSPPFTFGQGTKVDIKRTVAAPSVFIFPPSDEQLKSGTASVVCLLNNFYPREAKVQWKVDNALQSGNSQESVTEQDSKDSTYSLESTLTLSKADYEKHKVYACEVTHQGLSSPVTKSFNRGEC
heavy 1: not shown
light 2: QSVLTQPPSVSAAPGQKVTISCSGSSSNIGNNYVSWYQQLPGTAPKLLIYDNNKRPSGIPDRFSGSKSGTSATLGITGLQTGDEADYYCGTWDSRLSAVVFGGGTKLTVLGQPKANPTVTLFPPSSEELQANKATLVCLISDFYPGAVTVAWKADGSPVKAGVETTKPSKQSNNKYAAKSYLSLTPEQWKSHRSYSCQVTHEGSTVEKTVAPTECS
heavy 2: QVQLVESGGGVVQPGRSLRLSCAASGFTFSSFGMHWVRQAPGKGLEWVAVISFDGSIKYSVDSVKGRFTISRDNSKNTLFLQMNSLRAEDTAVYYCARDRLNYYDSSGYYHYKYYGMAVWGQGTTVTVSSASTKGPSVFPLAPSSKSTSGGTAALGCLVKDYFPEPVTVSWNSGALTSGVHTFPAVLQSSGLYSLESVVTVPSSSLGTQTYICNVNHKPSNTKVDKKVEPKSCDKTHTCPPCPAPELLGGPSVFLFPPKPKDTLMISRTPEVTCVVVDVSHEDPEVKFNWYVDGVEVHNAKTKPCEEQYGSTYRCVSVLTVLHQDWLNGKEYKCKVSNKALPAPIEKTISKAKGQPREPQVYTLPPSRKEMTKNQVSLTCLVKGFYPSDIAVEWESNGQPENNYKTTPPVLKSDGSFFLYSKLTVDKSRWQQGNVFSCSVMHEALHNHYTQKSLSLSPGK
B4: iPS:327894 (bispecific antibody, human IgG1, kappa, lambda, N297G)
light 1: not shown
heavy 1: not shown
light 2: B3 light 2
heavy 2: B3 heavy 2 with D105E
B5: iPS:327884 (bispecific antibody, human IgG1, kappa, lambda, N297G)
light 1: not shown
heavy 1: not shown
light 2: B3 light 2
heavy 2: B3 heavy 2
B6: iPS:327896 (bispecific antibody, human IgG1, kappa, lambda, N297G)
light 1: B3 light 1
heavy 1: not shown
light 2: B3 light 2
heavy 2: B3 heavy 2 with D105E, E370K
B7: iPS:327889 (bispecific antibody, human IgG1, kappa, lambda, N297G)
light 1: not shown
heavy 1: not shown
light 2: B3 light 2 with G75A
heavy 2: B3 heavy 2
B8: iPS:327895 (bispecific antibody, human IgG1, kappa, lambda, N297G)
light 1: not shown
heavy 1: not shown
light 2: B3 light 2 with G103K
heavy 2: B3 heavy 2 with G44E, D105E
B9: iPS:327897 (bispecific antibody, human IgG1, kappa, lambda, N297G)
light 1: not shown
heavy 1: not shown
light 2: B3 light 2
heavy 2: B3 heavy 2 with D105E, E370K
B10: iPS:327887 (bispecific antibody, human IgG1, kappa, lambda, N297G)
light 1: not shown
heavy 1: not shown
light 2: B3 light 2
heavy 2: B3 heavy 2 with E370K
B11: iPS:327893 (bispecific antibody, human IgG1, kappa, lambda, N297G)
light 1: B3 light 1
heavy 1: not shown
light 2: B3 light 2
heavy 2: B3 heavy 2 with D105E
B12: iPS:328031 (bispecific antibody, human IgG1, kappa, N297G)
light 1: B3 light 1
heavy 1: not shown
light 2: B2 light 2
heavy 2: not shown
B13: iPS:327886 (bispecific antibody, human IgG1, kappa, lambda, N297G)
light 1: B3 light 1
heavy 1: not shown
light 2: B3 light 2
heavy 2: B3 heavy 2 with E370K
B14: iPS:327888 (bispecific antibody, human IgG1, kappa, lambda, N297G)
light 1: B3 light 1
heavy 1: not shown
light 2: B3 light 2 with G75A
heavy 2: B3 heavy 2
B15: iPS:327885 (bispecific antibody, human IgG1, kappa, lambda, N297G)
light 1: not shown
heavy 1: not shown
light 2: B3 light 2 with G103K
heavy 2: B3 heavy 2 with G44E

Where a chain is given by its changes, count along the chain named.

The target in one assay is human CGRP receptor (human, UniProt Q16602 23-461; O60894 27-148). Put plainly: cell-based or functional assay.
Sequence of human CGRP receptor (Q16602 23-461 limits assumed, chain 1 of 2): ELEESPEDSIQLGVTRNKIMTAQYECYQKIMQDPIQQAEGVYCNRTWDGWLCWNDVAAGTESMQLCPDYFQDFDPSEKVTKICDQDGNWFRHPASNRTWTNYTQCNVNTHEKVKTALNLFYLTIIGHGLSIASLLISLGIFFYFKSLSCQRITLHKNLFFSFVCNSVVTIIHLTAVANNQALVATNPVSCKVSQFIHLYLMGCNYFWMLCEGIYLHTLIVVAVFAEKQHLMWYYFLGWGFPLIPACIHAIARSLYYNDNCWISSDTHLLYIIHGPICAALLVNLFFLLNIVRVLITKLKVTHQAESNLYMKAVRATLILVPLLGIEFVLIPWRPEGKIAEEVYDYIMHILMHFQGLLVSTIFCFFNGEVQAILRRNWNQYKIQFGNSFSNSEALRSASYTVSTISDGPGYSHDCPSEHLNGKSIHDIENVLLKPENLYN
Sequence of human CGRP receptor (O60894 27-148 limits assumed, chain 2 of 2): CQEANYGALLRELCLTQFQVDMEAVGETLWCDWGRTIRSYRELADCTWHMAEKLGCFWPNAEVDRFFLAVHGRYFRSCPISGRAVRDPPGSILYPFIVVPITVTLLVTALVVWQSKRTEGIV
Regarding B1, the “% inhibition of human CGRPR” value came to 67%.

As to B2, the “% inhibition of human CGRPR” value amounted to 82%.

In the case of B3, the “% inhibition of human CGRPR” value amounted to 77%.

Consider B4, for which the “% inhibition of human CGRPR” value is 80%.

Consider B5, for which the “% inhibition of human CGRPR” value turned out to be 78%.

Take B6: the “% inhibition of human CGRPR” value is 87%.

Take B7: the “% inhibition of human CGRPR” value was 83%.

Turning to B8, the “% inhibition of human CGRPR” value is 80%.

As for B9, the “% inhibition of human CGRPR” value was 80%.

Take B10: the “% inhibition of human CGRPR” value came out at 87%.

On to B11, for which the “% inhibition of human CGRPR” value amounted to 74%.

As for B12, the “% inhibition of human CGRPR” value stood at 75%.

Take B13: the “% inhibition of human CGRPR” value came to 72%.

As to B14, the “% inhibition of human CGRPR” value is 83%.

With B15, the “% inhibition of human CGRPR” value was determined as 73%.

The target in a further assay is T1, human PAC1 receptor. In words: cell-based or functional assay.
In the case of B1, the “% inhibition of human PAC1” value is 59%.

Regarding B2, the “% inhibition of human PAC1” value is 20%.

In the case of B3, the “% inhibition of human PAC1” value came out at 27%.

For the molecule B4, the “% inhibition of human PAC1” value turned out to be 12%.

B5: the “% inhibition of human PAC1” value stood at 8%.

For B6, the “% inhibition of human PAC1” value amounted to 28%.

As to B7, the “% inhibition of human PAC1” value turned out to be 9%.

Take B8: the “% inhibition of human PAC1” value came to 15%.

For the molecule B9, the “% inhibition of human PAC1” value came to 12%.

With B10, the “% inhibition of human PAC1” value is 35%.

For the molecule B11, the “% inhibition of human PAC1” value turned out to be 56%.

With B12, the “% inhibition of human PAC1” value worked out at 27%.

Turning to B13, the “% inhibition of human PAC1” value stood at 65%.

In the case of B14, the “% inhibition of human PAC1” value stood at 56%.

For the molecule B15, the “% inhibition of human PAC1” value turned out to be 7%.
